Laboratory results: the supplement of paper PMC9112550, “Optimization of the antimicrobial peptide Bac7 by deep mutational scanning” (BMC Biology, 2022)

system: Escherichia coli TOP10; assay: shrunken log2 fold change of peptide-encoding DNA abundance (4.5 h post-induction vs induction); higher = less antimicrobial activity (less host growth inhibition); details: time post-induction: 4.5 h; library: site-saturation at positions 5, 18, 19, 20
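Also: peptides expressed intracellularly from a pBAD plasmid library in pooled LB shake-flask culture, induced with 0.3% L-arabinose, DNA abundance read by NGS, three biological replicates, DESeq2 with apeglm shrinkage.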

| Sequence | shrunken log2 fold change |
| --- | --- |
| RRIRHRPPRLPRPRPRPMLHPRP | 0.195 |
| RRIRHRPPRLPRPRPRPMLIPRP | -0.824 |
| RRIRHRPPRLPRPRPRPMNIPRP | -0.214 |
| RRIRHRPPRLPRPRPRPMPRPRP | 0.069 |
| RRIRHRPPRLPRPRPRPMPSPRP | 0.0183 |
| RRIRHRPPRLPRPRPRPMQKPRP | -0.0124 |
| RRIRHRPPRLPRPRPRPMRTPRP | -0.11 |
| RRIRHRPPRLPRPRPRPMSEPRP | 0.0594 |
| RRIRHRPPRLPRPRPRPMSIPRP | -0.0719 |
| RRIRHRPPRLPRPRPRPMTQPRP | -0.24 |
| RRIRHRPPRLPRPRPRPMVWPRP | 0.0787 |
| RRIRHRPPRLPRPRPRPNALPRP | 0.0224 |
| RRIRHRPPRLPRPRPRPNCCPRP | 0.0161 |
| RRIRHRPPRLPRPRPRPNCYPRP | -0.0056 |
| RRIRHRPPRLPRPRPRPNFTPRP | -0.104 |
| RRIRHRPPRLPRPRPRPNGSPRP | -0.0827 |
| RRIRHRPPRLPRPRPRPNHFPRP | -0.262 |
| RRIRHRPPRLPRPRPRPNHSPRP | -0.785 |
| RRIRHRPPRLPRPRPRPNIIPRP | -0.307 |
| RRIRHRPPRLPRPRPRPNMHPRP | 1.05 |
| RRIRHRPPRLPRPRPRPNQLPRP | -0.154 |
| RRIRHRPPRLPRPRPRPNQQPRP | -0.0412 |
| RRIRHRPPRLPRPRPRPNQTPRP | -0.0854 |
| RRIRHRPPRLPRPRPRPNQVPRP | 0.0339 |
| RRIRHRPPRLPRPRPRPNRHPRP | -0.281 |

| Sequence | shrunken log2 fold change |
| --- | --- |
| RRIRHRPPRLPRPRPRPNTAPRP | -0.246 |
| RRIRHRPPRLPRPRPRPNTLPRP | -0.0867 |
| RRIRHRPPRLPRPRPRPNVCPRP | -0.0562 |
| RRIRHRPPRLPRPRPRPNVHPRP | -0.113 |
| RRIRHRPPRLPRPRPRPNYPPRP | -0.32 |
| RRIRHRPPRLPRPRPRPPAEPRP | 0.0536 |
| RRIRHRPPRLPRPRPRPPAGPRP | 0.344 |
| RRIRHRPPRLPRPRPRPPCEPRP | 0.00703 |
| RRIRHRPPRLPRPRPRPPCMPRP | -0.245 |
| RRIRHRPPRLPRPRPRPPDEPRP | 0.43 |
| RRIRHRPPRLPRPRPRPPEDPRP | 0.314 |
| RRIRHRPPRLPRPRPRPPFAPRP | 0.564 |
| RRIRHRPPRLPRPRPRPPIAPRP | -0.0868 |
| RRIRHRPPRLPRPRPRPPIWPRP | 0.324 |
| RRIRHRPPRLPRPRPRPPKHPRP | 0.2 |
| RRIRHRPPRLPRPRPRPPKNPRP | -0.0129 |
| RRIRHRPPRLPRPRPRPPLEPRP | 0.223 |
| RRIRHRPPRLPRPRPRPPLTPRP | 0.162 |
| RRIRHRPPRLPRPRPRPPMAPRP | 0.197 |
| RRIRHRPPRLPRPRPRPPPPPRP | 1.05 |
| RRIRHRPPRLPRPRPRPPPVPRP | 0.658 |
| RRIRHRPPRLPRPRPRPPQHPRP | -0.177 |
| RRIRHRPPRLPRPRPRPPRKPRP | -0.0559 |
| RRIRHRPPRLPRPRPRPPSCPRP | 0.604 |
| RRIRHRPPRLPRPRPRPPSGPRP | 0.771 |

| Sequence | shrunken log2 fold change |
| --- | --- |
| RRIRHRPPRLPRPRPRPPSQPRP | -0.232 |
| RRIRHRPPRLPRPRPRPPTFPRP | -0.0769 |
| RRIRHRPPRLPRPRPRPPVYPRP | 0.118 |
| RRIRHRPPRLPRPRPRPPWLPRP | 0.242 |
| RRIRHRPPRLPRPRPRPPYTPRP | -0.266 |
| RRIRHRPPRLPRPRPRPQAHPRP | -0.0538 |
| RRIRHRPPRLPRPRPRPQALPRP | -0.278 |
| RRIRHRPPRLPRPRPRPQCDPRP | -0.13 |
| RRIRHRPPRLPRPRPRPQCHPRP | -0.202 |
| RRIRHRPPRLPRPRPRPQDCPRP | -0.01 |
| RRIRHRPPRLPRPRPRPQDFPRP | 0.0261 |
| RRIRHRPPRLPRPRPRPQEIPRP | -0.19 |
| RRIRHRPPRLPRPRPRPQFFPRP | -0.619 |
| RRIRHRPPRLPRPRPRPQFRPRP | -0.0324 |
| RRIRHRPPRLPRPRPRPQGPPRP | -0.235 |
| RRIRHRPPRLPRPRPRPQHCPRP | -0.503 |
| RRIRHRPPRLPRPRPRPQIGPRP | -0.0135 |
| RRIRHRPPRLPRPRPRPQKRPRP | -0.225 |
| RRIRHRPPRLPRPRPRPQKYPRP | -0.383 |
| RRIRHRPPRLPRPRPRPQLDPRP | 0.153 |
| RRIRHRPPRLPRPRPRPQMNPRP | -0.312 |
| RRIRHRPPRLPRPRPRPQPCPRP | 0.0971 |
| RRIRHRPPRLPRPRPRPQQGPRP | -0.14 |
| RRIRHRPPRLPRPRPRPQQNPRP | -0.0705 |
| RRIRHRPPRLPRPRPRPQRHPRP | 0.0629 |
